Literature values, collected in paper PMC6963985.

Molecular target: CTLA-4 (Homo sapiens) (UniProt P16410)
Sequence of UniProt P16410 (P16410 36-161): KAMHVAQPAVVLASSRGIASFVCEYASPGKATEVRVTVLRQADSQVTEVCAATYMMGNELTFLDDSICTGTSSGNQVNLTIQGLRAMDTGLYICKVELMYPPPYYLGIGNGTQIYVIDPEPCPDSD

- Kd: 5.9 nM
Substance: Tremelimumab
